# Test results published in patent US20150246946A1, “PEPTIDES AND METHODS FOR TREATING CANCER” (AGENCY FOR SCIENCE, TECHNOLOGY AND RESEARCH, priority 2012, published 2015).
# Like-named read-outs stand apart in the source and are kept apart here. Where a SMILES comes first, the peptide text is derived from it. Bridges are numbered along the chain shown (N, C = ends). [ ]: non-standard residue; d: D form. Trp(6-Cl) = N[C@@H](Cc1c[nH]c2cc(Cl)ccc12)C(=O)O; dTrp(6-Cl) = N[C@H](Cc1c[nH]c2cc(Cl)ccc12)C(=O)O; R8 = C=CCCCCCC[C@@](C)(N)C(=O)O; S5 = C=CCCC[C@](C)(N)C(=O)O
# T1: Mdm4 (1-125) (Homo sapiens, UniProt O15151)
# T1 construct: Mdm4 (1-125) were ligated into the GST fusion expression vector pGEX-6P-1; GST (N, cleaved yes); made in house; host or cells: E. coli BL21 DE3
# T1 sequence (O15151 1-125): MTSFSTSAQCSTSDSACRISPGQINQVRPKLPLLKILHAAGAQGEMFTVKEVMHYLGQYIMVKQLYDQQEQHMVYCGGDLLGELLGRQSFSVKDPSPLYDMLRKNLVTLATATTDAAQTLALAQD
# T2: Mdm4 (1-125) (human, UniProt O15151 1-125)
# T2 construct: range 1-125; also called MDMX; Hdm4
# T2 sequence (looked up): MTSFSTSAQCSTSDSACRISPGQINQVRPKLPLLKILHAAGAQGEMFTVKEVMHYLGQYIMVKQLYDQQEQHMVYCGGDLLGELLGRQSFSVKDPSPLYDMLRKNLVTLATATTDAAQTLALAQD
# Legend:
# [1] = tested on: p53 null thymocytes; assay: cell viability in mouse thymocytes, p53 null; assay type: cell-based, mice; settings: high doses, 24 hours, annexin V/PI
# [2] = target: T3, Mdm2 (1-125) (Homo sapiens, UniProt Q00987); assay: competitive fluorescence polarization/anisotropy, apparent Kd against Mdm2; assay type: binding
# T3 construct: Mdm2 (1-125) and Mdm4 (1-125) were ligated into the GST fusion expression vector pGEX-6P-1; GST (N, cleaved yes); made in house; host or cells: E. coli BL21 DE3
# Procedure: (§1) The cells expressing the GST fusion constructs were grown in LB medium at 37° C. to an OD600 of ˜0.6 and induction was started with 1 mM IPTG and carried out overnight at room temperature. Cells were harvested by centrifugation and the cell pellets were re-suspended in 50 mM Tris pH 8.0, 10% sucrose and were then sonicated. The sonicated sample was centrifuged for 60 mins at 17,000 g at 4° C. […] The column was then further washed by 6 volumes of wash buffer. Mdm2 and Mdm4 were then purified from the column by cleavage with Precission (GE Lifesciences) protease. 10 units of precission protease, in one column volume of PBS with 1 mM DTT buffer, were injected onto the column. The cleavage reaction was allowed to proceed overnight at 4° C. The cleaved protein was then eluted of the column with wash buffer. Protein fractions were analyzed with SDS page gel and concentrated using a Centricon (3.5 kDa MWCO) concentrator, Millipore. Mdm2 and Mdm4 protein samples were then dialyzed into a buffer solution containing 20 mM Bis-Tris, pH 6.5, 0.05M NaCl with 1 mM DTT and loaded onto a monoS column pre-equilibrated in buffer A (20 mM Bis-Tris, pH 6.5, 1 mM DTT). The column was then washed in 6 column volumes of buffer A and bound protein was eluted with a linear gradient of 1M NaCL over 25 column volumes. Protein fractions were analyzed with SDS page gel and concentrated using a Centricon (3.5 kDa MWCO) concentrator from Millipore.
# (§2) Apparent Kd values were determined for a variety of molecules via competitive fluorescence anisotropy experiments. […] The competing molecules were then titrated against complex of the FAM labelled peptide and protein. Apparent Kd values were determined by fitting the experimental data to the equations shown below:
# (§3) [L]st and [L]t denote labelled ligand and total unlabelled ligand input concentrations, respectively. Kd2 is the dissociation constant of the interaction between the unlabelled ligand and the protein. In all competitive types of experiments, it is assumed that [P]t>[L]st, otherwise considerable amounts of free labelled ligand would always be present and would interfere with measurements. […] The FAM-labelled peptide were dissolved in DMSO at 1 mM and diluted into experimental buffer. Readings were carried out with a Envision Multilabel Reader (PerkinElmer). […] All titrations were carried out in triplicate. Curve-fitting was carried out using Prism 4.0 (GraphPad).
# [3] = target: T1, Mdm4 (1-125); assay: competitive fluorescence polarization/anisotropy, apparent Kd against Mdm4; assay type: binding
# Procedure: as §1, §2, §3
# [4] = tested on: p53 responsive LacZ reporter gene in T22 cell line; assay: T22 p53 β-galactosidase based reporter assay; assay type: cell-based, murine; settings: 18 hours, DMEM with 10% FBS
# Procedure: T22 cells, which were stably transfected with a p53 responsive […] reporter, were seeded into 96-well plate at a cell density of 8000 cells per well. […] Measurements were carried out using a Safire II multiplate reader (TECAN). Experiments were carried out independently twice.
# [5] = target: T4, Mdm2 (1-125) (human, UniProt Q00987 1-125); assay: apparent Kd, competitive fluorescence polarization; displacement of FAM-…-NH2 from Mdm2 (1-125)
# T4 construct: range 1-125; also called Hdm2
# [6] = target: T2, Mdm4 (1-125); assay: apparent Kd, competitive fluorescence polarization; displacement of FAM-…-NH2 from Mdm4 (1-125)
# [7] = target: T2, Mdm4 (1-125); assay: as above; remark: listed apart in the source
# [8] = target: T4, Mdm2 (1-125); assay: apparent Kd, competitive fluorescence polarization; displacement of FAM-…-NH2 from Mdm2 (1-125); remark: listed apart in the source
# T4 sequence (Q00987 1-125 limits assumed): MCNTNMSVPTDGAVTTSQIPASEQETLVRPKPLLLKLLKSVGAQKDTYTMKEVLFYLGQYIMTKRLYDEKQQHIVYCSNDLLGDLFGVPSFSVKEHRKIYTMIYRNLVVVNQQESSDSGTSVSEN
# T3 sequence (Q00987 1-125): as the sequence (Q00987 1-125 limits assumed) above
molecule,measurement,setting,value
"COc1ccc(C2=N[C@@H](c3ccc(Cl)cc3)[C@@H](c3ccc(Cl)cc3)N2C(=O)N2CCNC(=O)C2)c(OC(C)C)c1 [nutlin, reference compound]",apoptosis in p53 null thymocytes,[1],caused apoptosis in p53 null thymocytes
"CC(=O)N[C@H](C(=O)N[C@@H](CO)C(=O)N[C@@H](Cc1ccccc1)C(=O)N[C@]1(C)CCCCCCC=CCCC[C@@](C)(C(N)=O)NC(=O)[C@H](CC(C)C)NC(=O)[C@H](CC(C)C)NC(=O)[C@H](CC(N)=O)NC(=O)[C@H](Cc2c[nH]c3ccccc23)NC(=O)[C@H](Cc2ccc(O)cc2)NC(=O)[C@H](CCC(=O)O)NC1=O)[C@@H](C)O [sMTide-01, Ac-^1TSFXEYWNLLX^11-NH2] (Ac-TSF[R8]EYWNLL[S5]-NH2; staple 4-11)",increase in Kd against Mdm2 in comparison to unstapled counterpart,[2]; stapled vs unstapled peptide,approximately 2 fold
same,increase in Kd against Mdm4 in comparison to unstapled counterpart,[3]; stapled vs unstapled peptide,4 fold
same,p53 transcriptional activity in T22 p53 reporter assay,[4],little activity
"CC(=O)N[C@@H](CO)C(=O)N[C@@H](Cc1ccccc1)C(=O)N[C@]1(C)CCCCCCC=CCCC[C@@](C)(C(N)=O)NC(=O)[C@H](CC(C)C)NC(=O)[C@H](CC(C)C)NC(=O)[C@H](C)NC(=O)[C@H](Cc2c[nH]c3ccccc23)NC(=O)[C@H](Cc2ccc(O)cc2)NC(=O)[C@H](CCC(=O)O)NC1=O [sMTide-04, Ac-^2SFXEYWALLX^11-NH2] (Ac-SF[R8]EYWALL[S5]-NH2; staple 3-10)",preference between Mdm2 and Mdm4 in binding,[2]; comparison of apparent Kds,interacted more tightly with Mdm4 than with Mdm2
"CC(=O)N[C@H](C(=O)N[C@@H](CO)C(=O)N[C@@H](Cc1ccccc1)C(=O)N[C@]1(C)CCCCCCC=CCCC[C@@](C)(C(N)=O)NC(=O)[C@H](CC(C)C)NC(=O)[C@H](CC(C)C)NC(=O)[C@H](Cc2ccccc2)NC(=O)[C@H](Cc2c[nH]c3ccccc23)NC(=O)[C@H](Cc2ccc(O)cc2)NC(=O)[C@H](CCC(=O)O)NC1=O)[C@@H](C)O [sMTide-07, Ac-^1TSFXEYWFLLX^11-NH2] (Ac-TSF[R8]EYWFLL[S5]-NH2; staple 4-11)",p53 transcriptional activity in T22 p53 reporter assay,[4],"diminish the ability of sMTide-07 to induce p53, compared to sMTide-06"
"CC(=O)N[C@H](C(=O)N[C@@H](CO)C(=O)N[C@@H](Cc1ccccc1)C(=O)N[C@]1(C)CCCCCCC=CCCC[C@@](C)(C(N)=O)NC(=O)[C@H](CC(C)C)NC(=O)[C@H](CC(C)C)NC(=O)[C@H](C)NC(=O)[C@@H](Cc2c[nH]c3cc(Cl)ccc23)NC(=O)[C@H](Cc2ccc(O)cc2)NC(=O)[C@H](CCC(=O)O)NC1=O)[C@@H](C)O [sMTide-02B, Ac-^1TSFXEY(D-6-Cl)WALLX^11-NH2]",Mdm4 Kd,"[3]; apparent Kd, competitive fluorescence polarization, Mdm4 75 nM, FAM peptide 50 nM",attenuated
same,p53 transcriptional activity in T22 p53 reporter assay,[4],negligible activity
"Ac-SF[R8]EYWALL[S5]-NH2 (staple 3-10; SMILES CC(=O)N[C@@H](CO)C(=O)N[C@@H](Cc1ccccc1)C(=O)N[C@]1(C)CCCCCCC=CCCC[C@@](C)(C(N)=O)NC(=O)[C@H](CC(C)C)NC(=O)[C@H](CC(C)C)NC(=O)[C@H](C)NC(=O)[C@H](Cc2c[nH]c3ccccc23)NC(=O)[C@H](Cc2ccc(O)cc2)NC(=O)[C@H](CCC(=O)O)NC1=O, also called Ac-SFXEYWALLX-NH2) [sMTide-04]",Kd,[5],104 nM
same,Kd,[6],63 nM
"Ac-TSF[R8]EYWKLL[S5]-NH2 (staple 4-11; SMILES CC(=O)N[C@H](C(=O)N[C@@H](CO)C(=O)N[C@@H](Cc1ccccc1)C(=O)N[C@]1(C)CCCCCCC=CCCC[C@@](C)(C(N)=O)NC(=O)[C@H](CC(C)C)NC(=O)[C@H](CC(C)C)NC(=O)[C@H](CCCCN)NC(=O)[C@H](Cc2c[nH]c3ccccc23)NC(=O)[C@H](Cc2ccc(O)cc2)NC(=O)[C@H](CCC(=O)O)NC1=O)[C@@H](C)O, also called Ac-TSFXEYWKLLX-NH2) [sMTide-05]",Kd,[5],26.3 nM
same,Kd,[6],29.9 nM
"Ac-TSF[R8]EYWYLL[S5]-NH2 (staple 4-11; SMILES CC(=O)N[C@H](C(=O)N[C@@H](CO)C(=O)N[C@@H](Cc1ccccc1)C(=O)N[C@]1(C)CCCCCCC=CCCC[C@@](C)(C(N)=O)NC(=O)[C@H](CC(C)C)NC(=O)[C@H](CC(C)C)NC(=O)[C@H](Cc2ccc(O)cc2)NC(=O)[C@H](Cc2c[nH]c3ccccc23)NC(=O)[C@H](Cc2ccc(O)cc2)NC(=O)[C@H](CCC(=O)O)NC1=O)[C@@H](C)O, also called Ac-TSFXEYWYLLX-NH2) [sMTide-06]",Kd,[5],128 nM
same,Kd,[6],328 nM
"Ac-TSF[R8]EYWFLL[S5]-NH2 (staple 4-11; SMILES CC(=O)N[C@H](C(=O)N[C@@H](CO)C(=O)N[C@@H](Cc1ccccc1)C(=O)N[C@]1(C)CCCCCCC=CCCC[C@@](C)(C(N)=O)NC(=O)[C@H](CC(C)C)NC(=O)[C@H](CC(C)C)NC(=O)[C@H](Cc2ccccc2)NC(=O)[C@H](Cc2c[nH]c3ccccc23)NC(=O)[C@H](Cc2ccc(O)cc2)NC(=O)[C@H](CCC(=O)O)NC1=O)[C@@H](C)O, also called Ac-TSFXEYWFLLX-NH2) [sMTide-07]",Kd,[5],175 nM
same,Kd,[6],394 nM
"Ac-TSF[R8]EY[dTrp(6-Cl)]ALL[S5]-NH2 (staple 4-11, also called Ac-TSFXEY(D-6-Cl)WALLX-NH2; D-isomer) [sMTide-02B]",Kd,[7],2160 nM
"Ac-TSF[R8]EY[Trp(6-Cl)]ALL[S5]-NH2 (staple 4-11, also called Ac-TSFXEY(L-6-Cl)WALLX-NH2; L-isomer) [sMTide-02A]",Kd,[7],1360 nM
Ac-TSFAEYWNLLS-NH2 (Linear phage-derived peptide) [MTide-01],Kd,[7],33.2 nM
same,Kd,[8],46.3 nM
